{
  "source": "paper PMC5910026",
  "about": "(Biochemistry, 2018)",
  "target": "the molecule itself",
  "test": "AUC",
  "data": [
    {"protein": "MxiN (recombinant, from pET15b) (natural protein) MKVCNMQKGTLPVSRHHAYDGVVIKRIEKELCKTIKDRDTESKKKAICVIKDATKKAESLRIDAVCDGYQIGIQTAFEHIIDYICEWKLKQNENRRNIEDYITSLLSENLHDERIISTLLEQWLSSLRNTVTELKVVLPKCNLALRKKLELDLHKYRSDVKIILKYSEGNNYIFCSGNQVVEFSPQDVISGVKIELAEKLTKNDKKYFKELAHKKLRQIAEDLLKENPVND", "values": [
      {"measurement": "stoichiometry N", "value": 2}
    ]}
  ]
}
